The values that follow are results of earlier work, collected in US20200354411A1, “Chimeric Molecule for Targeting c-Myc in Cells” (priority 2017, published 2020).

In this series the test system is A549 cells. As to conditions: shown in the art.

B1: Omomyc: myc dominant negative peptide able to bind E-Box promoter and prevent c-myc binding, SEQ ID NO: 6 (peptide)
chain: TEENVKRRTHNVLERQRRNELKRSFFALRDQIPELENNEKAPKVVILKKATAYILSVQAETQKLISEIDLLRKQNEQLKHKLEQLRNSCA
modifications: Omomyc
For the molecule B1, the “concentration at which treated cells showed apoptosis” value is 10 µM.
